Reference: paper PMC7840601

Key:
[1] = target: human C3b (CompTech) (human); assay: SPR; 300 RU human C3b amine-coupled on a CM5 chip; FH1-4 WT or variant injected in duplicate at up to 40 uM; Biacore X100, 25 C, 30 ul/min, 10 mM HEPES-buffered saline, 3 mM EDTA, 0.05% surfactant P20; steady-state affinity model
[2] = target: human C3b (CompTech) (human)

| Substance | KD as a ratio of the KD of WT FH1-4 [1] | cofactor activity for FI-mediated cleavage of C3b on sheep erythrocytes, IC50 as a multiple of WT FH1-4 [2] | decay acceleration of the C3 convertase (C3bBb) on sheep erythrocytes, IC50 as a multiple of WT FH1-4 [2] |
| --- | --- | --- | --- |
| FH1-4 A161S (from UniProt P08603 19-263) (domain or fragment) | 0.97 x WT | – | – |
| FH1-4 D130N (from UniProt P08603 19-263) (domain or fragment) | 1.44 x WT | – | – |
| FH1-4 G69E (from UniProt P08603 19-263) (domain or fragment) | 1.2 x WT | – | – |
| FH1-4 M162V (from UniProt P08603 19-263) (domain or fragment) | 1.23 x WT | – | – |
| FH1-4 Q81P (from UniProt P08603 19-263) (domain or fragment) | – | 11 x WT | 25.1 x WT |
| FH1-4 S159N (from UniProt P08603 19-263) (domain or fragment) | 1.2 x WT | – | – |
